From publication PMC3797246 (Structure (London, England : 1993), 2013)
Numbering of substitutions follows the chain as printed. Names may count otherwise.

T1: SARAH domain of human RASSF5 (RASSF5^SARAH, residues 366-413) (human, UniProt Q8WWW0 366-413)
T1 chain (looked up): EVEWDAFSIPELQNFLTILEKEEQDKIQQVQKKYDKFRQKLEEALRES

B1: full-length Mst2 (Mst2^FL, residues 9-491) (enzyme, human, UniProt Q13188 9-491, looked up)
chain: SKLKKLSEDSLTKQPEEVFDVLEKLGEGSYGSVFKAIHKESGQVVAIKQVPVESDLQEIIKEISIMQQCDSPYVVKYYGSYFKNTDLWIVMEYCGAGSVSDIIRLRNKTLIEDEIATILKSTLKGLEYLHFMRKIHRDIKAGNILLNTEGHAKLADFGVAGQLTDTMAKRNTVIGTPFWMAPEVIQEIGYNCVADIWSLGITSIEMAEGKPPYADIHPMRAIFMIPTNPPPTFRKPELWSDDFTDFVKKCLVKNPEQRATATQLLQHPFIKNAKPVSILRDLITEAMEIKAKRHEEQQRELEEEEENSDEDELDSHTMVKTSVESVGTMRATSTMSEGAQTMIEHNSTMLESDLGTMVINSEDEEEEDGTMKRNATSPQVQRPSFMDYFDKQDFKNKSHENCNQNMHEPFPMSKNVFPDNWKVPQDGDFDFLKNLSLEELQMRLKALDPMMEREIEELRQRYTAKRQPILDAMDAKKRRQQNF
modifications: phosphorylated at the activation loop (T180) as purified from bacteria
B2: Mst2 D456A, full-length, in vitro translated (enzyme, human, UniProt Q13188 1-491, looked up)
chain: MEQPPAPKSKLKKLSEDSLTKQPEEVFDVLEKLGEGSYGSVFKAIHKESGQVVAIKQVPVESDLQEIIKEISIMQQCDSPYVVKYYGSYFKNTDLWIVMEYCGAGSVSDIIRLRNKTLIEDEIATILKSTLKGLEYLHFMRKIHRDIKAGNILLNTEGHAKLADFGVAGQLTDTMAKRNTVIGTPFWMAPEVIQEIGYNCVADIWSLGITSIEMAEGKPPYADIHPMRAIFMIPTNPPPTFRKPELWSDDFTDFVKKCLVKNPEQRATATQLLQHPFIKNAKPVSILRDLITEAMEIKAKRHEEQQRELEEEEENSDEDELDSHTMVKTSVESVGTMRATSTMSEGAQTMIEHNSTMLESDLGTMVINSEDEEEEDGTMKRNATSPQVQRPSFMDYFDKQDFKNKSHENCNQNMHEPFPMSKNVFPDNWKVPQDGDFDFLKNLSLEELQMRLKALAPMMEREIEELRQRYTAKRQPILDAMDAKKRRQQNF
modifications: 35S-methionine label
B3: Mst2 K473A, full-length, in vitro translated (enzyme, human, UniProt Q13188 1-491, looked up)
chain: B2 chain with A456D, K473A
modifications: 35S-methionine label
B4: Mst2 L445A, full-length, in vitro translated (enzyme, human, UniProt Q13188 1-491, looked up)
chain: B2 chain with L445A, A456D
modifications: 35S-methionine label
B5: Mst2 L466A, full-length, in vitro translated (enzyme, human, UniProt Q13188 1-491, looked up)
chain: B2 chain with A456D, L466A
modifications: 35S-methionine label
B6: Mst2 R467A, full-length, in vitro translated (enzyme, human, UniProt Q13188 1-491, looked up)
chain: B2 chain with A456D, R467A
modifications: 35S-methionine label
B7: Mst2 R469A, full-length, in vitro translated (enzyme, human, UniProt Q13188 1-491, looked up)
chain: B2 chain with A456D, R469A
modifications: 35S-methionine label
B8: Mst2 R474A, full-length, in vitro translated (enzyme, human, UniProt Q13188 1-491, looked up)
chain: B2 chain with A456D, R474A
modifications: 35S-methionine label
B9: catalytically inactive mutant of the human Mst2 kinase domain (Mst2^KD/D146N) (domain or fragment, UniProt Q13188 16-313, looked up)
chain: EDSLTKQPEEVFDVLEKLGEGSYGSVFKAIHKESGQVVAIKQVPVESDLQEIIKEISIMQQCDSPYVVKYYGSYFKNTDLWIVMEYCGAGSVSDIIRLRNKTLIEDEIATILKSTLKGLEYLHFMRKIHRNIKAGNILLNTEGHAKLADFGVAGQLTDTMAKRNTVIGTPFWMAPEVIQEIGYNCVADIWSLGITSIEMAEGKPPYADIHPMRAIFMIPTNPPPTFRKPELWSDDFTDFVKKCLVKNPEQRATATQLLQHPFIKNAKPVSILRDLITEAMEIKAKRHEEQQRELEEEE
B10: linker-deletion Mst2 (Mst2^ΔL, residues 9-313 and 428-491) (enzyme, human, UniProt Q13188 9-313, looked up)
chain: SKLKKLSEDSLTKQPEEVFDVLEKLGEGSYGSVFKAIHKESGQVVAIKQVPVESDLQEIIKEISIMQQCDSPYVVKYYGSYFKNTDLWIVMEYCGAGSVSDIIRLRNKTLIEDEIATILKSTLKGLEYLHFMRKIHRDIKAGNILLNTEGHAKLADFGVAGQLTDTMAKRNTVIGTPFWMAPEVIQEIGYNCVADIWSLGITSIEMAEGKPPYADIHPMRAIFMIPTNPPPTFRKPELWSDDFTDFVKKCLVKNPEQRATATQLLQHPFIKNAKPVSILRDLITEAMEIKAKRHEEQQRELEEEENWKVPQDGDFDFLKNLSLEELQMRLKALDPMMEREIEELRQRYTAKRQPILDAMDAKKRRQQNF

Tests used:
[1] = target: the molecule itself; experiment: SEC
[2] = target: the molecule itself; experiment: co-IP
[3] = target: the molecule itself; experiment: AUC
[4] = target: T1, SARAH domain of human RASSF5 …; experiment: SEC

| Binder | binding compared to wild-type Mst2 [2] | other results |
| --- | --- | --- |
| B1 |  | stoichiometry N [1]: 2 |
| B2 | ≥ 30% |  |
| B3 | ≥ 30% |  |
| B4 | ≥ 30% |  |
| B5 | ≥ 30% |  |
| B6 | ≥ 30% |  |
| B7 | ≥ 30% |  |
| B8 | ≥ 30% |  |
| B9 |  | stoichiometry N [3]: 2 |
| B10 |  | binding result [4]: binds |
